Results taken from US9610323B2, “Model systems and treatment regimes for treatment of neurological disease” (NoNO Inc., priority 2009, dated 2017).
Read-outs that look alike come from different tables or passages of the source. Square brackets hold non-standard residues; d marks the D form. Ends that are not written are not given here.

Tests used:
[1] = high dose groups, primates
[2] = Protocol: For use such a composition is thawed and diluted into a larger volume of normal saline for infusion into a blood vessel. Another composition can be made by lyophilizing the chimeric agent Tat-NR2B9c at a concentration of 1-50 mg/ml in normal saline in the presence or absence of excipients. Such excipients can include those to increase stability or inhibit bacterial, viral or other pathogen growth that could degrade the drug. […] The lyophilized composition can be reconstituted in normal saline.
[3] = tested on: permanent pial vessel occlusion (P3VO) stroke; assay: Rat model of stroke, permanent pial vessel occlusion of 3 terminal branches of the Middle Cerebral Artery (P3VO); format: in vivo, Sprague Dawley rats; details: 7.6 mg/kg i.v. after vessel occlusion, 5 min infusion
Protocol: Different infusion times were also compared for efficacy in a rat model of stroke in which adult Sprague Dawley rats (10-12 weeks old) (males˜300 g, females˜250 g) were fasted for 12-18 hours before being subjected to permanent pial vessel occlusion of 3 terminal branches of the Middle Cerebral Artery over the Whisker Barrel Cortex (P3VO). The protocol for analysis of this rat model has been described in WO/2008/008348. Tat-NR2B9c was administered at 7.6 mg/kg i.v. after vessel occlusion in comparison with vehicle. Two periods of infusion were compared, 5 min and 1 hour.

[4] = high dose groups, rats
[5] = tested on: embolic stroke; assay: Primate model of ischemic stroke (twenty 100-micron polystyrene spheres into an intracerebral vessel; MRI brain analysis); format: in vivo, macaques; details: 2.6 mg/kg one hour after spheres
Protocol: The following example was performed on ten macaques divided into five test subjects and five controls. Each animal was put through the protocol twice with test animals in the first round serving as controls in the second round and vice versa.
Twenty 100-micron polystyrene spheres were delivered into an intracerebral vessel of each animal to induce embolic stroke. One hour after introducing the sphere, the animals were treated with Tat-NR2B9c (2.6 mg/kg) or vehicle control. The animals were then subject to MRI brain analysis and neurological examination at 4 hr, 24 hr and 14 days after introduction of the spheres.
After 14-28 days, the procedure was repeated with test animals serving as controls and vice versa.

[6] = for subjects with histamine levels greater than 10 nmol/L: 3.75 mg/kg dose group; for maximum histamine level / average histamine level: 3.75 mg/kg; for average histamine level: subjects with levels greater than 10 nmol/L
Protocol: We carried out a Safety, Tolerability and Pharmacokinetic Study of Tat-NR2B9c in humans. Subjects were either normal, healthy, non-smoking males or post-menopausal or surgically sterile female subjects with a minimum age of 18 years. The subjects were either administered Tat-NR2B9c, Lot #: 124-134-001B, or were given placebo (Phosphate Buffered Saline), Lot #: 124-134-001A, administered as an intravenous infusion (10±1 minutes). Four subjects were dosed in each of Cohorts 1 to 3, and 10 subjects were dosed in each of Cohorts 4 to 8.
During the study period, 11 blood samples were collected for pharmacokinetic analysis from each subject at the following timepoints: 0.00 (pre-dose), 0.08 (5 minutes), 0.17 to 0.25 (10 to 15 minutes, precisely at the end of each individual drug infusion), 0.33 (20 minutes), 0.50, 0.75, 1.00, 2.00, 6.00, 12.00, and 24.00 hours post-dose. In addition, 8 blood samples were collected for histamine analysis from each subject at the following timepoints: 0.00 (pre-dose), and at 0.08 (5 minutes), 0.17 (10 minutes), 0.25, 0.50, 1.00, 2.00, and 24.00 hours post-dose.
The safety assessment was performed on all subjects who received at least 1 dose during the course of the study. The incidents of all adverse events (AEs) were tabulated by treatment and subject number. Absolute values for vital signs, electrocardiogram (ECG) parameters, laboratory parameters and physical examinations were also documented and values outside the normal range were flagged. Shifts from baseline values were tabulated. AEs were documented using investigator and Medical Dictionary for Regulatory Activities (MedDRA) terms.

[7] = high dose groups, dogs
[8] = 50 mg/kg
Protocol: Tat-NR2B9c was administered to rats at 50 mg/kg and infusion times of 3 min or 60 min.

[9] = tested on: cerebral ischemia; details: reported in WO 2008/014917; cited from earlier work
[10] = molecular target: binding of NMDAR 2B to PSD95 (Homo sapiens, UniProt P78352); details: reported by Bach; cited from earlier work
[11] = cortex compared with whole brain

Chain of binding of NMDAR 2B to PSD95 (P78352 61-249 limits assumed): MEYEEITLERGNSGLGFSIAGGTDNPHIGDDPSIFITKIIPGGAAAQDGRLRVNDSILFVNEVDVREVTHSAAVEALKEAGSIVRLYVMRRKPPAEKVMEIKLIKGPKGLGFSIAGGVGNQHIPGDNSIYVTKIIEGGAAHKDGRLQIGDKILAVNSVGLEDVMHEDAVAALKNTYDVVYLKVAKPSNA

YGRKKRRQRRRKLSSIESDV [Tat-NR2B9c]
histamine levels [1]: elevated histamine levels were observed
stability of lyophilized composition ([2]; lyophilized from 1-50 mg/ml in normal saline, −20° C. or room temperature): stable
stability (degradation or aggregation of the peptide) when stored frozen ([2]; normal saline, 10-30 mg/ml, stored frozen, two or more years): stable
infarction size 24 hr post treatment relative to saline placebo [3]: significantly reduced
histamine levels [4]: elevated histamine levels were observed
reduction of number of infarctions in the cortex [5, 11]: even greater
reduction of volumes of infarctions in the cortex [5, 11]: even greater
number of MRI-visible infarctions in the whole brain ([5]; vs vehicle control): significantly reduced
volume of MRI-visible infarctions in the whole brain ([5]; vs vehicle control): significantly reduced
subjects with an elevated histamine level ([6]; 0.375 mg/kg dose group, 1 timepoint, 2.00 hours post dose): 1 subject
subjects with histamine levels greater than 10 nmol/L ([6]; 10 minutes after start of administration): 7 of the 8
subjects with histamine levels greater than 10 nmol/L ([6]; 10 minutes after start of administration, listed as NA 1): Seven of 8
subjects with histamine levels greater than 10 nmol/L ([6]; 15 minutes after start of administration): 3 subjects
maximum histamine level ([6]; 10 minutes after start): 39.8 nmol/L
average histamine level ([6]; 10 minutes after start): 24.3 nmol/L
maximum histamine level ([6]; 15 minutes after start): 20.3 nmol/L
average histamine level ([6]; 15 minutes after start): 15.3 nmol/L
AE dry mouth, incidence ([6]; 9/46 subjects receiving drug): 19.6%
AE flushing, incidence ([6]; 10/46 subjects receiving drug): 21.7%
AE pruritis, incidence ([6]; 12/46 subjects receiving drug): 26.1%
AE feeling hot, incidence ([6]; 13/46 subjects receiving drug): 28.3%
active treatment subjects who experienced at least 1 AE ([6]; 34 of 46 active treatment subjects, all doses): 73.9%
time for abnormal histamine results to return to the normal range ([6]; after drug administration): ≤ 24.00 h
Serious Adverse Events (SAEs) ([6]; all dose groups): No Serious Adverse Events (SAEs) were reported
AEs at doses ≧2.60 mg/kg (decreased blood pressure, paraesthesia, hypoaesthesia, erythema, rash, pruritus, dry mouth, nausea, feeling hot, flushing) ([6]; doses ≧2.60 mg/kg): several AEs were frequently reported
abnormal levels of histamine ([6]; treatment groups other than 3.75 mg/kg): no treatment group had significant abnormal levels of histamine
histamine levels [7]: elevated histamine levels were observed
decrease in blood pressure ([8]; infusion over 3 min): about 50%
period of recovery of blood pressure ([8]; infusion over 3 min): 90 min
recovery of blood pressure ([8]; infusion over an hour (60 min)): recovered over a period of hour
reduction in blood pressure ([8]; infusion over an hour (60 min)): only a slight reduction

vdseisslk-rrrqrrkkrgyin ([dV][dD][dS][dE][dI][dS][dS][dL][dK][dR][dR][dR][dQ][dR][dR][dK][dK][dR]G[dY][dI][dN]; also: retro-inverso) [retro-inverso analog of Tat-NR2B9c, retro-inverso analog of Tat-NR2B9c described in WO 2008/014917]
inhibiting cerebral ischemia [9]: effective

IESDV (synthetic pentamer peptide from the C-terminus of NMDAR 2B) [pentamer peptide from the C-terminus of NMDAR 2B, reported by Bach]
inhibiting binding of NMDAR 2B to PSD95 [10]: effective
